The Kd is the equilibrium constant for the complex coming apart. In general, LD50 refers to the dose at which mortality reaches 50%. In general, Km refers to the concentration of substrate that gives half-maximal velocity.

One data set deals with Mab 15A10. Briefly: Inhibition of Mab 15A10 cocaine hydrolysis. The conditions noted are these: for Ki: read-out: inhibition constant (K1 / Ki) for Mab 15A10; for inhibition of Mab 15A10: at 1 mM. Format: biochemical, Mouse.
The subject of a further data set is catalytic mAb. Kind of data set: Inhibition of the activity of the catalytic mAbs. Format: biochemical, mouse.
Data set [1] deals with cocaine esterase activity present in serum. Kind of data set: Inhibition of cocaine esterase activity present in serum. The following applies: 150 μM. Format: biochemical.
The test system of data set [2] is conscious, unrestrained animals. The conditions noted are these: continuously infused cocaine 1 mg/kg/min, i.v. catecholamine infusion; previous work (19); cited from earlier work.
The conditions of data set [3]: inhalation of vaporized cocaine; cited from earlier work.
A short description of data set [4]: ELISA with TSA 1, 2, and 3 bound to ovalbumin. It is filed as binding. The source says: The rationale for varying the tether sites of TSA to carrier protein (BSA) was to expose unique epitopes and elect catalytic antibodies specific to each immunogen. In order to assess binding specificity, the catalytic antibodies were examined by ELISA with TSA 1, 2, and 3 bound to ovalbumin.
A general note: An ELISA detects its analyte on a solid surface through an enzyme-linked reagent.

Data set [5] in a line: Hydrolysis of 3H-cocaine by Mab's (kinetic measurements). The conditions noted are these: for Km: Michaelis constant, pH that optimized kcat/ko: in general pH 7.8, 6A12 pH 7.4, 2A10 pH 7.0; for krat: catalytic rate constant (turnover rate), same pH as Km; for kcat/ko: rate acceleration over spontaneous rate (kcat/kuncat).
Data set [6] is described as follows: Elisa analysis of single chain Fv fragment. Format: binding. The following applies: scFv of Mab 3B9.
Another data set concerns LD90 cocaine. Kind of data set: Survival after LD90 cocaine infusion. It is filed as in vivo, rat. The following applies: for survival to LD90 cocaine infusion: cocaine 16 mg/kg at 1 mg/kg/min.
Data set [7] is described as follows: Plasma concentrations at death by HPLC. The following applies: compared to saline or Mab 1C1 control groups, antibody 100 mg/kg. Format: in vivo, rat.
In data set [8] the test system is cocaine-induced convulsions or death. The conditions noted are these: antibody 100 mg/kg.
The mark [9] stands for this setting: cocaine 1 mg/kg/min until death.

Substitutions are numbered along the chain they refer to. “Also recorded” adds a separate entry of the source.

In the case of `COC(=O)C1C(OP(=O)(O)c2ccccc2)CC2CCC1N2C` (stereo not shown) [free TSA 4], the “inhibition of Mab 15A10 catalytic activity” value in the data set on Mab 15A10 (free TSA 50 μM, bioreactor-produced Mab 15A10) was “completely inhibited”. The Ki at Mab 15A10 was found to be 0.23 µM. The “inhibition of all catalytic antibodies (enzymes)” value in the data set on catalytic mAb (50 μM) is recorded as “inhibited completely”. Besides, in data set [1], the “inhibition of cocaine esterase activity present in serum” value is “did not inhibit”.

`O=C(O)c1ccccc1` [benzoic acid]: the Kd on Mab 15A10 (read-out: Kd, inhibition of Mab 15A10 in vitro) is ~250 µM. Further, the Ki on Mab 15A10 is 250 µM.

In the case of `CNC(=O)Oc1ccc2c(c1)[C@]1(C)CCN(C)[C@@H]1N2C` [eserine, reference compound], the “inhibition of the activity of any catalytic mAb” value in the data set on catalytic mAb (1 mM) was “did not inhibit”.

For the molecule `O=C(O)CNC(=O)c1ccccc1` [hippuric acid], the “inhibition of Mab 15A10” value with Mab 15A10 is reported as “did not inhibit; also recorded: not an inhibitor”.

In the case of `COC(=O)[C@@H]1[C@H]2CC[C@@H](C[C@@H]1O)N2C` [ecgonine methyl ester], in the data set with Mab 15A10, the “inhibition of Mab 15A10” value is “not inhibited; also recorded: not observed”.

For the molecule `CN1[C@H]2CC[C@@H]1[C@@H](C(=O)O)[C@@H](OC(=O)c1ccccc1)C2` [benzoyl ecgonine], the “inhibition of Mab 15A10” value in the data set on Mab 15A10 is “no inhibition”.

As to `COC(=O)[C@H]1[C@@H](OC(=O)c2ccccc2)C[C@@H]2CC[C@H]1N2C` [cocaine], in data set [2], the 50% lethal dose (LD50) is 10 mg/kg and the LD90 is listed as 16 mg/kg. Moreover, the “peak pulmonary vein concentration” value in data set [3] was 10 to 30 µM.

B1: Mab 3B9: anti-cocaine catalytic monoclonal antibody elicited by TSA 1 (antibody, V domains shown)
VH: DVQLQESGPGLVKPSQSLSLTCTVTGNSITSDYAWTWIRQFPGNKLEWMGYIRHIYGTRYNPSLISRISITRDTSKNQFFLQLDSVTAEDTATYYCVRYHYYGSAYWGQGTLVTVSAAKTTP
VL: DIVMTQDELSNPVTSGESVSISCRSSRSLLYRDGKTYLNWFLQRPGRSPQLLIYLMSTRSSGVSDRFSGSGSGTDFTLEISRVKAEDVGVYYCQHFVDYPFTFGSGTKLEIKR
modifications: mouse
As for B1, the “binding specificity by ELISA” value in data set [4] was “bound all three conjugates”. For the same molecule, in data set [5], the Km came out at 490 µM, the “krat” value worked out at 0.11 min⁻¹ and the kcat/ko amounted to 1100.

B2: Mab 2A10: anti-cocaine catalytic monoclonal antibody elicited by TSA 1 (antibody)
heavy: ELVKPSQSLSLTCTVTGYSITSDYAWNWIRQFPGNRLEWMGYIRYSGITRYNPSLKSRISITRDTSKNKFFLQLNSVTTEDTATYYCVRIHYYGYGNWGQGTTLTGLP
light: B1 VL with I2M, R27K, R32E, R47Q, Q50H, S60A, V90A, H95Q, D98E, K112R
modifications: mouse
As to B2, the “binding specificity by ELISA” value in data set [4] is listed as “bound all three conjugates”. Moreover, in data set [5], the Km is 3000 µM, the “krat” value worked out at 0.011 min⁻¹ and the kcat/ko is 420.

B3: Mab 6A12: anti-cocaine catalytic monoclonal antibody elicited by TSA 1 (antibody)
heavy: B1 VH
light: B1 VL with I2M, S60A, C93F, V97E
modifications: mouse
In the case of B3, the “binding specificity by ELISA” value in [4] is listed as “bound all three conjugates”. Besides, in [5], the Km stood at 1020 µM, the “krat” value came out at 0.072 min⁻¹ and the kcat/ko is on record as 880.

B4: Mab 8G4E: anti-cocaine catalytic monoclonal antibody elicited by TSA 3 (antibody, V domains shown)
VH: VQLLESGAELVMPGASVKMSCKASGYTFTDHWMHWVKQRPGQGLEWIGTIDLSDTYTGYNQNFKGRATLTLDESSNTAYMQLSSLTSEDSAVYYCSRRGFDYWGQGTTLTVSS
VL: ELVMTQSPLTLSVTIGQPASISCKSSQSLLYSDGKTYLNWFFQRPGQSPKRLIYLVSKLDSGVPDRFTGSGSGKDFTLKISRVEAEDLGLYYCVQGYTFPLTFGAGTKLELKR
modifications: mouse
With B4, the “binding specificity by ELISA” value in [4] is “bound only TSA-1 and 3”. Also, in [5], the Km came to 1200 µM, the “krat” value amounted to 0.12 min⁻¹ and the kcat/ko is 1100.

B5: single chain Fv fragment: single chain Fv fragment for catalytic monoclonal antibody 3B9, with FLAG and 6×His (protein)
scFv: MEVQLQESGPELVKPSQSLSLTCTVTGNSITSDYAWTWIRQFPGNKLEWMGYIRHIYGTRYNPSLISRISITRDTSKNQFFLQLDSVTAEDTATYYCVRYHYYGSAYWGQGTLVTVSAGMQSGGGGSGGGGSGGAMDIVMTQDELSNPVTSGESVSISCRSSRSLLYRDGKTYLNWFLQRPGRPPQLLIYLMSTRSSGVSDRFSGSGSGTDFTLEISRVKAEDVGVYYCQHFVDYPFTFGSGTKLEIKRADGAPTVSIFFPPSLDYKDDDDKLEHHHHHH
modifications: FLAG and 6xHis tags; mouse
notes: single chain Fv fragment for catalytic monoclonal antibody 3B9, with FLAG and 6×His
Turning to B5, the “binding activity by Elisa” value in data set [6] was “demonstrated binding activity”. Moreover, in data set [5] (result in words), the “catalytic activity (release of ^3H-benzoic acid from ^3H-phenyl-cocaine)” value is given as “Enzymatic activity was confirmed”.

B6: Mab 15A10: mouse monoclonal anti-cocaine catalytic antibody elicited by TSA 1; most active (antibody, V domains shown)
VH: SGPELVKPGASVKVSCKASGYSFTDYNMYWVKQNHGESLEWIAYIDPSNGDTFYNQKFQGKATVTLDKSSSTAFMHLNSLTSEDSAVYYCARGGGLFAFWGQGTLVTVSA
VL: AVVTQESALTTSPGETVTLTCRSSTGTITSDNYANWVQEKPDHLFSGLIGVNNYRPPGVPARFSGSLTGDKAVLTITGAQTEDEAIYFCALWYSNHWVFGGGTKLTVLG
modifications: mouse
For B6, in [4], the “binding specificity by ELISA” value was “bound only TSA-1 and 3”. Besides, the “mean cocaine dose at death” value in the data set with LD90 cocaine (antibody 5 mg/kg) came out at 8.2 ± 1.0 mg/kg. In addition, the “cocaine dose at death of the single non-survivor” value in the data set on LD90 cocaine (antibody 15 mg/kg) is 15.9 mg/kg. Besides, the “survival to LD90 cocaine infusion” value in the data set on LD90 cocaine (antibody 15 mg/kg i.v.) is “Four of five”. Besides, in the data set with LD90 cocaine (antibody 50 mg/kg i.v.), the “survival to LD90 cocaine infusion” value was “all of five”. Further, the “effect on survival / protection from cocaine toxicity” value in the data set on LD90 cocaine (result in words, p<0.001) is “dose-dependent increase in survival; also recorded: significant”. Also, in data set [7], the “increase in plasma ecgonine methyl ester” value is given as > 10 fold. Moreover, in data set [5], the Km is 220 µM, the “krat” value worked out at 2.3 min⁻¹ and the kcat/ko is listed as 2.3×10^4. Moreover, the “kcat (activity) remaining after repetitive turnover” value in [5] (after 6 hrs and >200 turnovers, of baseline) is > 95%. Further, the “potency relative to the first catalytic antibodies” value in data set [5] (at sub-saturating concentrations of cocaine) was determined as 100 fold. The kcat/ko in data set [5] (listed as 15A10) is on record as 23000. For the same molecule, in [8], the “increase of mean lethal dose of cocaine over controls” value is given as “over 3 fold”. For the same molecule, in [8] (setting [9]), the “dose of cocaine at seizure (average)” value is recorded as 32.5 mg/kg and the “mean lethal dose of cocaine” value worked out at 37.0 mg/kg.

B7: Mab 8G4G: anti-cocaine catalytic monoclonal antibody elicited by TSA 3 (antibody)
heavy: VQLLESGAELVKPGASVELSCRTSGYTFTTYYIYWVKQRPGQGLEWIGGMNPGNGVTYFNEKFKNRATLTVDRSSSIAYMQLSSLTSEDSAVYYCTRVGNSLLTGAEGLWSLSLQ
light: TRAGETVTLTCRSSSGTITANNYGSWVQEKPDHLFTGLIGVSNNRGPGVPARFSGSLIGDKAVLTITGGQTEDEAIYFCALWNSNHFVFGGGTKLTVLGQ
modifications: mouse
Turning to B7, the “binding specificity by ELISA” value in data set [4] was “bound only TSA-1 and 3”. Also, in [5], the Km amounted to 530 µM, the “krat” value came out at 0.60 min⁻¹ and the kcat/ko came to 5500.

B8: Mab 9A3: anti-cocaine catalytic monoclonal antibody elicited by TSA 1 (antibody, V domains shown)
VH: SGPELVKPGASVKLSCKASGYPFTDYNMYWVKQSHGKSLEWIGYIDPSNGGIFYNQKFKGRATLTVDKSSNTAFMHLNSLTSEDSAVYYCARGGGLFAYWGQGTLVTVSE
VL: TWPGETVTLTCRSSTGTITTSNYANWVQEKPDHLFSGLIGINNNRPPGVPARFSGSLIGDKAVLTITGAQTEDEAIYFCALWYSNHWVFGGGTKLTVLG
modifications: mouse
Regarding B8, the “binding specificity by ELISA” value in data set [4] was “bound only TSA-1 and 3”. For the same molecule, in data set [5], the Km is 270 µM, the “krat” value amounted to 0.015 min⁻¹ and the kcat/ko is 140.

(Values after US6913917B2, “Anti-cocaine catalytic antibody” (priority 1996, dated 2005).)
